# Measured values: patent US20150152192A1 (SAMSUNG ELECTRONICS, published 2015)
# T1: mouse Ang2 (Accession # NP-031452) (R&D Systems) (mouse, UniProt O35608 19-496, limits assumed)
# T1 construct: Bought protein; also called mAng2
# T1 sequence (looked up): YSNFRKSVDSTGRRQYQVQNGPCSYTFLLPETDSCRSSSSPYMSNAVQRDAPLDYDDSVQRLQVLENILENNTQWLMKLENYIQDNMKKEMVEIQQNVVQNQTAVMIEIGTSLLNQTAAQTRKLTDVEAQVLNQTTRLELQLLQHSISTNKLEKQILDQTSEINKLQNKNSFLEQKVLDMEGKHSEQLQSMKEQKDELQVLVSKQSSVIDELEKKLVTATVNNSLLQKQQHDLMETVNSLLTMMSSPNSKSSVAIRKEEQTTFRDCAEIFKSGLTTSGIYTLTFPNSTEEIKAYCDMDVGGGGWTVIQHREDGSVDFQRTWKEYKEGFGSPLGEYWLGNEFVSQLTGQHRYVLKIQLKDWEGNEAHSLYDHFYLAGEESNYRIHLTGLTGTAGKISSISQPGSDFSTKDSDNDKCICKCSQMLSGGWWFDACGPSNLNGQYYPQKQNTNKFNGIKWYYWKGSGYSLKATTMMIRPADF
# T2: recombinant hAng2 (C-His, R&D Systems) (human, UniProt O15123 19-496)
# T2 construct: Bought protein captured on an anti-His chip; not shown: C-terminal His tag
# T2 sequence: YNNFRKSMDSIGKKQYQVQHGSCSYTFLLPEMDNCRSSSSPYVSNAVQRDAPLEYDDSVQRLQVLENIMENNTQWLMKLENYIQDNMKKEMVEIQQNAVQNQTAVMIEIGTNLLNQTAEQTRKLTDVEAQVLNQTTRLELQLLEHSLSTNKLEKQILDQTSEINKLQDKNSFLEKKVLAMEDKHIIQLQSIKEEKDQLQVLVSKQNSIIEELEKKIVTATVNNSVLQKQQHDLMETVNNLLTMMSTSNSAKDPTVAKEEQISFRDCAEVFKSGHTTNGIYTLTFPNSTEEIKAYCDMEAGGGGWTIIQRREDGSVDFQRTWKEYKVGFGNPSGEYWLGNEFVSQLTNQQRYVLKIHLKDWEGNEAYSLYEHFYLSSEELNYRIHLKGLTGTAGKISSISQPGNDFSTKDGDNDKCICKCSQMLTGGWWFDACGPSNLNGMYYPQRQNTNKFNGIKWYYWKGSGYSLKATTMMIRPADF
# T3: FLAG-Tagged hAng2 (human, UniProt O15123 19-496, limits assumed)
# T3 construct: also called FLAG-Ang2; non-mutated Ang2
# T3 sequence: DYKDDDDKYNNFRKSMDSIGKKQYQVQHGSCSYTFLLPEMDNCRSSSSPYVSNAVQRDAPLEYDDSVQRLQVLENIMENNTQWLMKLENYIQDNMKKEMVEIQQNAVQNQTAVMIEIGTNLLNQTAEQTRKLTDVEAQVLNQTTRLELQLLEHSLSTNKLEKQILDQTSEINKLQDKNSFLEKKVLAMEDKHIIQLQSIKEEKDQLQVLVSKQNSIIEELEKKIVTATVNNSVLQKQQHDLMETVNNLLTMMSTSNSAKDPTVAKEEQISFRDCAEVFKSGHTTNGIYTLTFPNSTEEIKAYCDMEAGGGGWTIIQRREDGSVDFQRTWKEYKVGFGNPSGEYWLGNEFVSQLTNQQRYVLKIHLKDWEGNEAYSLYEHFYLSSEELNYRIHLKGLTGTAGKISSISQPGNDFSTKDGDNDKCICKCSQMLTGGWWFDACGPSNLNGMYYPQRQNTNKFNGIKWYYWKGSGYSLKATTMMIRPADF
# What was measured:
# [1] = target: T1, mouse Ang2 (Accession # NP-031452) (R&D …); test: ELISA, antigen coated, IgG, anti-hFc-HRP; 50% binding concentration (Kd)
# Protocol: To measure binding of the antibodies prepared above with each antigen, ELISA was performed. A 96-well MaxiSorp™ flat-bottom plate (Nunc) was coated with 5˜20 μg/ml of human Ang2 and mouse Ang2 (Accession # NP_{—}031452) (both, R&D Systems). After that, the plate was washed five times with 0.05% (v/v) Tween-20-containing PBS and then blocked with 1% (v/v) BSA-containing PBS at a room temperature for 2 hours. The anti-Ang2 antibodies in their IgG forms prepared above (0.001, 0.01, 0.1, 1, 10, 100, and 1000 nM) were added to each well of the plate which was then allowed to react at a room temperature for 2 hours.
# (§1) Thereafter, the plate was washed five times with 0.05% Tween-20-containing PBS and then, an HRP-conjugated anti-human FC (Anti-hFc-HRP conjugated) antibody (SIGMA) diluted in 1% (v/v) BSA-containing PBS at 1:5,000 ratio (v/v) was added in the amount of 50 μl to each well to react at a room temperature for 1 hour, followed by washing five times with 0.1% (v/v) Tween-20-containing PBS. Finally, 100 μl of TMB substrate (cell signal) was added to each well of the plate to induce color development at a room temperature for 3 min and then, the reaction was ceased by the addition of 50 μl of 5N H₂SO₄ solution and OD450 values were measured on a plate reader (Molecular Devices).
# [2] = target: T2, recombinant hAng2 (C-His, R&D Systems); test: SPR, BIAcore T100, hAng2-His captured on anti-His CM5 chip, antibody flowed
# Protocol: To measure accurate affinities toward an anti-Ang2 antigen, antigen affinities were measured by a SPR method using a BIAcore T100 (GE Healthcare). The SPR method uses refractive index change of light which passes a sensor chip according to the state of materials coated onto the sensor chip, and if an antigen or an antibody is flowed onto a chip coated with the antigen or antibody, it causes changes in refractive index due to their binding and Kd values are thus calculated from the measured values.
# First, anti-His antibody was immobilized on a CM5 sensor chip (GE healthcare) up to 8,000 RU levels using a pH 5.0 acetate solution and an amine coupling kit (GE Healthcare). 6 μg/ml of a recombinant hAng2 (C-His, R&D Systems) protein was flowed onto the chip to be captured at 100 to 200 RU levels.
# [3] = target: T3, FLAG-Tagged hAng2; test: competitive ELISA: hTie2-Fc coated, 400 ng/ml FLAG-hAng2 plus IgG, anti-FLAG-HRP
# Protocol: To verify molecular interaction of the bound assemblies, a competitive ELISA was performed. A 96-well MaxiSorp™ flat-bottom plate (Nunc) was coated with […] of hTie2-Fc (R&D Systems), which is a protein with the Fc of human IgG1 bound thereto. After that, the plate was washed five times with 0.05% (v/v) Tween-20-containing PBS (Phosphate Buffer Saline) and then blocked with 1% (v/v) BSA (Bovine serum albumin; Sigma)-containing PBS at a room temperature for 2 hours.
# as §1, with “an HRP-conjugated anti-FLAG antibody (SIGMA)” for “an HRP-conjugated anti-human FC (Anti-hFc-HRP conjugated) antibody (SIGMA)”, “amount of 100 μl to” for “amount of 50 μl to”, “for 3 min. Then, the reaction” for “for 3 min and then, the reaction”
Kd [1] [nM],Kd [2] [nM],koff [2] [s⁻¹],kon [2] [M⁻¹ s⁻¹],IC50 [3] [nM],Binder
0.36,0.44,0.000777,1.76e+06,0.37,"SAIT-ANG-2-AB-4-F11 (IgG form) (antibody, V domains shown, Intact human antibody with human IgG1 constant region) VH: EVQLLESGGGLVQTGGSLRLSCAASGFTFSDYAMSWVRQAPGKGLEWVSSIYPDDGNTYYADSVKGRFTISRDNSKNTLYLQMNSLRAEDTAVYYCAKHPVRLNLHPMYYYYGMDVWGQGTLVTVSS VL: QSVLTQPPSASGTPGQRVTISCTGSSSNIGNNAVSWYQQLPGTAPKLLIYSDSQRPSGVPDRFSGSKSGTSASLAISGLRSEDEADYYCATWDYSLSAYVFGGGTKLTVLG"
0.28,0.588,0.00049,833000,0.421,"SAIT-ANG-2-AB-4-C11 (IgG form) (antibody, V domains shown, Intact human antibody with human IgG1 constant region) VH: EVQLLESGGGLVQPGGSLRLSCAASGFTFSDYAMSWVRQAPGKGLEWVSSIYPDDGNTYYADSVKGRFTISRDNSKNTLYLQMNSLRAEDTAVYYCARHTSHHTSIDGYYYYGMDGWGQGTLVTVSS VL: QSVLTQPPSASGTPGQRVTISCTGSSSNIGNNDVSWYQQLPGTAPKLLIYSDSKRPSGVPDRFSGSKSGTSASLAISGLRSEDEADYYCGSWDYSLSGYVFGGGTKLTVLG"
,0.205,0.000366,1.78e+06,0.392,"SAIT-ANG-2-AB-7-C9 (IgG form) (antibody, V domains shown, Intact human antibody with human IgG1 constant region) VH: EVQLLESGGGLVQPGGSLRLSCAASGFTFSNYAMSWVRQAPGKGLEWVSAISSGGGNIYYADSVKGRFTISRDNSKNTLYLQMNSLRAEDTAVYYCAKSGIQPSPPSMSSAYAMDVWGQGTLVTVSS VL: QSVLTQPPSASGTPGQRVTISCSGSSSNIGNNDVYWYQQLPGTAPKLLIYANSHRPSGVPDRFSGSKSGTSASLAISGLRSEDEADYYCGTWDYSLSGYVFGGGTKLTVLG"
0.3,0.47,0.000546,1.16e+06,0.44,"SAIT-ANG-2-AB-3-D3 (IgG form) (antibody, V domains shown, Intact human antibody with human IgG1 constant region) VH: EVQLLESGGGLVQPGGSLRLSCAASGFTFSDYDMSWVRQAPGKGLEWVSGISSDDGNTYYADSVKGRFTISRDNSKNTLYLQMNSLRAEDTAVYYCARPTIDKYTLRGYYSYGMDVWGQGTLVTVSS VL: QSVLTQPPSASGTPGQRVTISCTGSSSNIGSNYVSWYQQLPGTAPKLLIYSDNKRPSGVPDRFSGSKSGTSASLAISGLRSEDEADYYCGTWDDSLNGYVFGGGTKLTVLG"
0.35,0.65,0.000795,1.22e+06,0.605,"SAIT-ANG-2-AB-2-E6 (IgG form) (antibody, V domains shown, Intact human antibody: VH cloned into a vector with the constant region and Fc region of human IgG1, VL into pFUSE2-CLIg-hl2 (light chain constant region)) VH: EVQLLESGGGLVQTGGSLRLSCAASGFTFSDYAMSWVRQAPGKGLEWVSAIYPDSGNKYYADSVKGRFTISRDNSKNTLYLQMNSLRAEDTAVYYCARHSSDPKVKSGYYDDGMDVWGQGTLVAVSS VL: QSVLTQPPSASGTPGQRVTISCSGSSSNIGNNAVNWYQQLPGTAPKLLIYADSNRPSGVPDRFSGSKSGTSASLAISGLRSEDEADYYCGSWDYSLSGYVFGGGTKLTVLG"
,0.589,0.00112,1.9e+06,1.52,"SAIT-ANG-2-AB-4-F5 (IgG form) (antibody, V domains shown, Intact human antibody with human IgG1 constant region) VH: EVQLLESGGGLVQPGGSLRLSCAASGFTFSDYDMSWVRQAPGKGLEWVSSISHGDSNKYYADSVKGRFTISRDNSKNTLYLQMNSLRAEDTAVYYCAKSSGIQESPPTYYYYGMDVWGQGTLVTVSS VL: QSVLTQPPSASGTPGQRVTISCSGSSSNIGSNAVNWYQQLPGTAPKLLIYADSNRPSGVPDRFSGSKSGTSASLAISGLRSEDEADYYCGSWDYSLSGYVFGGGTKLTVLG"
0.19,0.074,0.000327,4.4e+06,0.341,"SAIT-ANG-2-AB-8-A5 (IgG form) (antibody, V domains shown, Intact human antibody with human IgG1 constant region) VH: EVQLLESGGGLVQPGGSLRLSCAASGFTFSDYYMSWVRQAPGKGLEWVSGIYPSGGSTYYADSVKGRFTISRDNSKNTLYLQMNSLRAEDTAVYYCARDPSTLTYAGFDYWGQGTLVTVSS VL: QSVLTQPPSASGTPGQRVTISCSGSSSNIGNNYVTWYQQLPGTAPKLLIYADSHRPSGVPDRFSGSKSGTSASLAISGLRSEDEADYYCATWDYSLSGYVFGGGTKLTVLG"
